This is an account of results in patent publication US11795460B2, “Compositions and methods for TTR gene editing and treating ATTR amyloidosis” (Intellia Therapeutics, Inc., priority 2017, dated 2023).

Data set [1] has as its system TTR mRNA. Description: TTR mRNA knockdown in primary human hepatocytes by quantitative PCR (Tables 34, 35). It is filed as cell-based. The following applies: TTR mRNA in PHH, 96 hours after treatment, vs untreated control. The method, then: In one experiment, PHH were cultured and treated with LNPs comprising Cas9 mRNA (SEQ ID NO:1) and a gRNA of interest (See FIG. 29, Table 34), as described in Example 4. The LNPs were prepared using the cross-flow procedure described above and purified and concentrated using PD-10 columns and Amicon centrifugal filter units, respectively. The LNPs were formulated with an N:P ratio of 6.0 and contained Lipid A, Cholesterol, DSPC, and PEG2k-DMG in a 50:38:9:2 molar ratio, respectively. The LNPs comprised a gRNA:mRNA ratio of 1:2, and the cells were treated at a dose of 300 ng (with respect to the amount of mRNA cargo delivered).
(§1) Ninety-six (96) hours following LNP treatment (with biological triplicates for each condition), mRNA was purified from PHH cells using the Dynabeads mRNA DIRECT Kit (ThermoFisher Scientific) according to the manufacturer's protocol. Reverse Transcription (RT) was performed with Maxima reverse transcriptase (ThermoFisher Scientific) and a poly-dT primer. The resulting cDNA was purified with Ampure XP Beads (Agencourt). For Quantitative PCR, 2% of the purified cDNA was amplified with Taqman Fast Advanced Mastermix and 3 Taqman probe sets, TTR (Assay ID: Hs00174914_m1), GAPDH (Assay ID: Hs02786624_g1), and PPIB (Assay ID: Hs00168719_m1). The assays were run on the QuantStudio 7 Flex Real Time PCR System according to the manufacturer's instructions (Life Technologies). Relative expression of TTR mRNA was calculated by normalizing to the endogenous controls (GAPDH and PPIB) individually, and then averaged.
In a separate experiment, TTR mRNA knockdown was evaluated following treatment with LNPs comprising G000480, G000486, and G000502. The LNPs were formulated and PHH were cultured and treated with the LNPs, each as described in the experiment above in this Example with the exception that the cells were treated at a dose of 100 ng (with respect to the amount of mRNA cargo delivered).
as §1, with “(single treatment” for “(with biological triplicates”, “the High Capacity cDNA Reverse Transcription Kit” for “Maxima reverse transcriptase”, “according to the manufacturer's instructions.” for “and a poly-dT primer. The resulting cDNA was purified with Ampure XP Beads (Agencourt).”, “the” for “the purified”

In data set [2] the test system is TTR. Description: EC50 and maximum editing in primary cyno hepatocytes treated with LNP formulated U-depleted Spy Cas9 mRNA and sgRNAs (Tables 20, 22). It is filed as cell-based, cynomolgus monkey. The arrangement: key: % of sequence reads with indels or substitutions over total reads. The following applies: dose response. The method, then: Primary liver hepatocytes. Primary human liver hepatocytes (PHH) and primary cynomolgus liver hepatocytes (PCH) (Gibco) were cultured per the manufacturer's protocol (Invitrogen, protocol 11.28.2012). In brief, the cells were thawed and resuspended in hepatocyte thawing medium with supplements (Gibco, Cat. CM7000) followed by centrifugation at 100 g for 10 minutes for human and 80 g for 4 minutes for cyno. The supernatant was discarded and the pelleted cells resuspended in hepatocyte plating medium plus supplement pack (Invitrogen, Cat. A1217601 and CM3000). Cells were counted and plated on Bio-coat collagen I coated 96-well plates (ThermoFisher, Cat. 877272) at a density of 33,000 cells/well for human or 60,000 cells/well for cyno (or 65,000 cells/well when assaying effects on TTR protein, described further below). Plated cells were allowed to settle and adhere for 6 or 24 hours in a tissue culture incubator at 37° C. and 5% CO2 atmosphere. After incubation cells were checked for monolayer formation and media was replaced with hepatocyte culture medium with serum-free supplement pack (Invitrogen, Cat. A1217601 and CM4000).
For LNPs prepared using the cross-flow technique, the LNPs were formed by impinging jet mixing of the lipid in ethanol with two volumes of RNA solutions and one volume of water. The lipid in ethanol is mixed through a mixing cross with the two volumes of RNA solution. A fourth stream of water is mixed with the outlet stream of the cross through an inline tee. (See WO2016010840 FIG. 2.) The LNPs were held for 1 hour at room temperature, and further diluted with water (approximately 1:1 v/v). Diluted LNPs were concentrated using tangential flow filtration on a flat sheet cartridge (Sartorius, 100 kD MWCO) and then buffer exchanged by diafiltration into 50 mM Tris, 45 mM NaCl, 5% (w/v) sucrose, pH 7.5 (TSS). Alternatively, the final buffer exchange into TSS was completed with PD-10 desalting columns (GE). If required, formulations were concentrated by centrifugation with Amicon 100 kDa centrifugal filters (Millipore). The resulting mixture was then filtered using a 0.2 μm sterile filter. The final LNP was stored at 4° C. or −80° C. until further use.
To quantitatively determine the efficiency of editing at the target location in the genome, sequencing was utilized to identify the presence of insertions and deletions introduced by gene editing.
Primers were designed around the target site within the gene of interest (e.g. TTR), and the genomic area of interest was amplified.
Additional PCR was performed per the manufacturer's protocols (Illumina) to add chemistry for sequencing. The amplicons were sequenced on an Illumina MiSeq instrument. The reads were aligned to a reference genome (e.g., the human reference genome (hg38), the cynomologus reference genome (mf5), the rat reference genome (rn6), or the mouse reference genome (mm10)) after eliminating those having low quality scores. The resulting files containing the reads were mapped to the reference genome (BAM files), where reads that overlapped the target region of interest were selected and the number of wild type reads versus the number of reads which contain an insertion, substitution, or deletion was calculated.
The editing percentage (e.g., the “editing efficiency” or “percent editing” or “indel frequency”) is defined as the total number of sequence reads with insertions/deletions (“indels”) or substitutions over the total number of sequence reads, including wild type.
Lipid nanoparticle formulations of modified sgRNAs targeting human TTR and the cyno matched sgRNA sequences were tested on primary human hepatocytes and primary cyno hepatocytes in a dose response curve. Primary human and cyno hepatocytes were plated as described in Example 1. Both cell lines were incubated at 37° C., 5% CO2 for 24 hours prior to treatment with LNPs. […]

Where [3] appears, read: LNP dose 300 ng mRNA cargo, gRNA:mRNA 1:2, biological triplicates.
Where [4] appears, read: Table 20, LNP with U-depleted Spy Cas9 mRNA and human specific sgRNAs.
The mark [5] stands for this setting: LNP dose 100 ng mRNA cargo, separate experiment.

Strand notation (5' to 3'): a small letter for the sugar, then the base; units joined by * are phosphorothioate-linked, units joined directly phosphodiester-linked; [ ] holds rarer units or linkages, { } end groups; capitals alone tell only the bases. m = 2'-O-methyl; r = 2'-OH (RNA)

B1: G000489: TTR sgRNA modified sequence, Human, SEQ ID No. 96; guide sequence of CR003344 (nucleic acid)
guide: mU*mU*mU*rGrArCrCrArUrCrArGrArGrGrArCrArCrUrGrUrUrUrUrArGrAmGmCmUmAmGmAmAmAmUmAmGmCrArArGrUrUrArArArArUrArArGrGrCrUrArGrUrCrCrGrUrUrArUrCrAmAmCmUmUmGmAmAmAmAmAmGmUmGmGmCmAmCmCmGmAmGmUmCmGmGmUmGmCmU*mU*mU*mU
Take B1: the “Avg % Knockdown” value in data set [1] (setting [3]) was determined as 91.85%. For the same molecule, in data set [2] (setting [4]), the “Max Editing” value came to 89.21.

B2: G000486: TTR sgRNA modified sequence, Human, SEQ ID No. 93; guide sequence of CR003339 (nucleic acid)
guide: mA*mC*mA*rCrArArArUrArCrCrArGrUrCrCrArGrCrArGrUrUrUrUrArGrAmGmCmUmAmGmAmAmAmUmAmGmCrArArGrUrUrArArArArUrArArGrGrCrUrArGrUrCrCrGrUrUrArUrCrAmAmCmUmUmGmAmAmAmAmAmGmUmGmGmCmAmCmCmGmAmGmUmCmGmGmUmGmCmU*mU*mU*mU
Take B2: in data set [1] (setting [5]), the “Avg % Knockdown” value was 97.36%.

B3: G000499: TTR sgRNA modified sequence, Human, SEQ ID No. 106; guide sequence of CR005303 (nucleic acid)
guide: mU*mG*mA*rArUrCrCrArArGrUrGrUrCrCrUrCrUrGrArGrUrUrUrUrArGrAmGmCmUmAmGmAmAmAmUmAmGmCrArArGrUrUrArArArArUrArArGrGrCrUrArGrUrCrCrGrUrUrArUrCrAmAmCmUmUmGmAmAmAmAmAmGmUmGmGmCmAmCmCmGmAmGmUmCmGmGmUmGmCmU*mU*mU*mU
As for B3, in data set [1] (setting [3]), the “Avg % Knockdown” value is on record as 91.38%. Also, in data set [2] (setting [4]), the “Max Editing” value was 74.94.

B4: G000481: TTR sgRNA modified sequence, Human, SEQ ID No. 88; guide sequence of CR003345 (nucleic acid)
guide: mU*mC*mU*rArGrArArCrUrUrUrGrArCrCrArUrCrArGrGrUrUrUrUrArGrAmGmCmUmAmGmAmAmAmUmAmGmCrArArGrUrUrArArArArUrArArGrGrCrUrArGrUrCrCrGrUrUrArUrCrAmAmCmUmUmGmAmAmAmAmAmGmUmGmGmCmAmCmCmGmAmGmUmCmGmGmUmGmCmU*mU*mU*mU
For the molecule B4, in data set [1] (setting [3]), the “Avg % Knockdown” value came out at 91.39%. In addition, the “Max Editing” value in data set [2] (setting [4]) stood at 95.07.

B5: G000494: TTR sgRNA modified sequence, Human, SEQ ID No. 101; guide sequence of CR003360 (nucleic acid)
guide: mG*mU*mG*rArGrUrCrUrGrGrArGrArGrCrUrGrCrArUrGrUrUrUrUrArGrAmGmCmUmAmGmAmAmAmUmAmGmCrArArGrUrUrArArArArUrArArGrGrCrUrArGrUrCrCrGrUrUrArUrCrAmAmCmUmUmGmAmAmAmAmAmGmUmGmGmCmAmCmCmGmAmGmUmCmGmGmUmGmCmU*mU*mU*mU
As for B5, the “Avg % Knockdown” value in data set [1] (setting [3]) came to 91.15%. The “Max Editing” value in data set [2] (setting [4]) is 60.84.

B6: G000482: TTR sgRNA modified sequence, Human, SEQ ID No. 89; guide sequence of CR003365 (nucleic acid)
guide: mU*mG*mU*rArGrArArGrGrGrArUrArUrArCrArArArGrGrUrUrUrUrArGrAmGmCmUmAmGmAmAmAmUmAmGmCrArArGrUrUrArArArArUrArArGrGrCrUrArGrUrCrCrGrUrUrArUrCrAmAmCmUmUmGmAmAmAmAmAmGmUmGmGmCmAmCmCmGmAmGmUmCmGmGmUmGmCmU*mU*mU*mU
As to B6, the “Avg % Knockdown” value in data set [1] (setting [3]) was 82.31%. In addition, the “Max Editing” value in data set [2] (setting [4]) is reported as 97.47.

B7: G000480: TTR sgRNA modified sequence, Human, SEQ ID No. 87; guide sequence of CR003353 (nucleic acid)
guide: mA*mA*mA*rGrGrCrUrGrCrUrGrArUrGrArCrArCrCrUrGrUrUrUrUrArGrAmGmCmUmAmGmAmAmAmUmAmGmCrArArGrUrUrArArArArUrArArGrGrCrUrArGrUrCrCrGrUrUrArUrCrAmAmCmUmUmGmAmAmAmAmAmGmUmGmGmCmAmCmCmGmAmGmUmCmGmGmUmGmCmU*mU*mU*mU
Consider B7, for which the entries for the “Avg % Knockdown” value in data set [1] (setting [5]) and in data set [1] (setting [3]) were 95.61% and 95.19%, respectively. For the same molecule, in data set [2] (setting [4]), the “Max Editing” value is listed as 20.32.

B8: G000502: TTR Cyno specific sgRNA modified sequence, SEQ ID No. 114; guide sequence of CR000689; cross homologous between mouse and cyno (nucleic acid)
guide: mA*mC*mA*rCrArArArUrArCrCrArGrUrCrCrArGrCrGrGrUrUrUrUrArGrAmGmCmUmAmGmAmAmAmUmAmGmCrArArGrUrUrArArArArUrArArGrGrCrUrArGrUrCrCrGrUrUrArUrCrAmAmCmUmUmGmAmAmAmAmAmGmUmGmGmCmAmCmCmGmAmGmUmCmGmGmUmGmCmU*mU*mU*mU
With B8, the “Avg % Knockdown” value in data set [1] (setting [5]) turned out to be 90.94%. Also, in data set [2] (Table 22, LNP with U-depleted Spy Cas9 mRNA and cyno specific sgRNAs), the “Max Editing” value was determined as 100.05.

B9: G000484: TTR sgRNA modified sequence, Human, SEQ ID No. 91; guide sequence of CR003367 (nucleic acid)
guide: mA*mG*mA*rCrArCrCrArArArUrCrUrUrArCrUrGrGrArGrUrUrUrUrArGrAmGmCmUmAmGmAmAmAmUmAmGmCrArArGrUrUrArArArArUrArArGrGrCrUrArGrUrCrCrGrUrUrArUrCrAmAmCmUmUmGmAmAmAmAmAmGmUmGmGmCmAmCmCmGmAmGmUmCmGmGmUmGmCmU*mU*mU*mU
For the molecule B9, in data set [1] (setting [3]), the “Avg % Knockdown” value was determined as 75.22%. Moreover, the “Max Editing” value in data set [2] (setting [4]) came to 0.22.

B10: G000488: TTR sgRNA modified sequence, Human, SEQ ID No. 95; guide sequence of CR003346 (nucleic acid)
guide: mA*mA*mA*rGrUrUrCrUrArGrArUrGrCrUrGrUrCrCrGrGrUrUrUrUrArGrAmGmCmUmAmGmAmAmAmUmAmGmCrArArGrUrUrArArArArUrArArGrGrCrUrArGrUrCrCrGrUrUrArUrCrAmAmCmUmUmGmAmAmAmAmAmGmUmGmGmCmAmCmCmGmAmGmUmCmGmGmUmGmCmU*mU*mU*mU
With B10, the “Avg % Knockdown” value in data set [1] (setting [3]) amounted to 92.77%. Further, the “Max Editing” value in data set [2] (setting [4]) is 21.63.

B11: G000483: TTR sgRNA modified sequence, Human, SEQ ID No. 90; guide sequence of CR005298 (nucleic acid)
guide: mU*mC*mC*rArCrUrCrArUrUrCrUrUrGrGrCrArGrGrArGrUrUrUrUrArGrAmGmCmUmAmGmAmAmAmUmAmGmCrArArGrUrUrArArArArUrArArGrGrCrUrArGrUrCrCrGrUrUrArUrCrAmAmCmUmUmGmAmAmAmAmAmGmUmGmGmCmAmCmCmGmAmGmUmCmGmGmUmGmCmU*mU*mU*mU
Regarding B11, the “Avg % Knockdown” value in data set [1] (setting [3]) was 68.78%. Moreover, the “Max Editing” value in data set [2] (setting [4]) stood at 56.52.
